Experimental findings from publication PMC5651683 (The Biochemical journal, 2017) are described below.

The assay concerns the target His6-Munc18a (rat, UniProt P61765 1-594). Put plainly: pull-down.

His6-Munc18a, sequence (P61765 whole entry): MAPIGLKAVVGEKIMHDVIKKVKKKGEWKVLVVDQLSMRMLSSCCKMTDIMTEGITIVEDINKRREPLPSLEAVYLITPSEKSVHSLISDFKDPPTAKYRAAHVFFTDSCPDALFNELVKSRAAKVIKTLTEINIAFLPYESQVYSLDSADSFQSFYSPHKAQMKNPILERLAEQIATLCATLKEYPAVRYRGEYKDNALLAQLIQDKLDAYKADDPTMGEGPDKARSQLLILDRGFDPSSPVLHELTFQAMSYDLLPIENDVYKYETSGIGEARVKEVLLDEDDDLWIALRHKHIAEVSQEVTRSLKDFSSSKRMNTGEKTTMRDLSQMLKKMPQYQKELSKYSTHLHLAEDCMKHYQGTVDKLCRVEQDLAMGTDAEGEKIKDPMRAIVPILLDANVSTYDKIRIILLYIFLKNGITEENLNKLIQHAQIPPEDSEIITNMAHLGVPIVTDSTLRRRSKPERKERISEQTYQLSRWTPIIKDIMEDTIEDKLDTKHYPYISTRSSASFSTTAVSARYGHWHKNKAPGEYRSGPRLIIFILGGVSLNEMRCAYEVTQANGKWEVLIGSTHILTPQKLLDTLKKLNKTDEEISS

B1: syntaxin3, full-length, liposome-anchored (natural protein, rat, UniProt Q08849 1-289, looked up)
chain: MKDRLEQLKAKQLTQDDDTDEVEIAIDNTAFMDEFFSEIEETRLNIDKISEHVEEAKKLYSIILSAPIPEPKTKDDLEQLTTEIKKRANNVRNKLKSMEKHIEEDEVRSSADLRIRKSQHSVLSRKFVEVMTKYNEAQVDFRERSKGRIQRQLEITGKKTTDEELEEMLESGNPAIFTSGIIDSQISKQALSEIEGRHKDIVRLESSIKELHDMFMDIAMLVENQGEMLDNIELNVMHTVDHVEKARDETKRAMKYQGQARKKLIIIIVIVVVLLGILALIIGLSVGLK
As to B1, the binding result is “binds”.
